What was measured:
3×MBT domain of L3MBTL1 = assay: Triple SILAC pull-down, 3xMBT/3xMBTD355N ratio (cytoplasmic, nuclear and chromatin fractions of 293T cells); assay type: binding, human; conditions: for 3xMBT/D355N UNC Heavy: experiment with UNC0638 in heavy SILAC media; for 3xMBT/D355N UNC Light: experiment with UNC0638 in light SILAC media;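 on all read-outs here: proteins quantified with MaxQuant, requiring at least two unique peptides and quantification in both label directions, normalized to the mean of proteins from a digested loading control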
G9a and GLP = biological target: T1, G9a and GLP (Homo sapiens, UniProt Q96KQ7+Q9H9B1); assay: Triple SILAC pull-down after UNC0638 treatment of 293T cells, DMSO/UNC0638 ratio of protein captured by 3×MBT; assay type: cell-based; design: cells were treated for 24 hours with UNC0638 at 2.5 μM or DMSO vehicle control; endogenous in cells; host or cells: HEK 293T; conditions: for Relative to UNC0638 UNC Heavy: UNC0638 in heavy SILAC media; for Relative to UNC0638 UNC Light: UNC0638 in light SILAC media; for Relative to UNC0638 Average: average of UNC Light and UNC Heavy experiments;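 on all read-outs here: mass spectrometry (Q-Exactive) SILAC quantitation, DMSO/UNC0638 ratio computed after subtracting 3×MBTD355N mutant pull-down background, only proteins with at least twofold 3×MBT over mutant signal considered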
T1 sequence (Q96KQ7 2-1210 limits assumed): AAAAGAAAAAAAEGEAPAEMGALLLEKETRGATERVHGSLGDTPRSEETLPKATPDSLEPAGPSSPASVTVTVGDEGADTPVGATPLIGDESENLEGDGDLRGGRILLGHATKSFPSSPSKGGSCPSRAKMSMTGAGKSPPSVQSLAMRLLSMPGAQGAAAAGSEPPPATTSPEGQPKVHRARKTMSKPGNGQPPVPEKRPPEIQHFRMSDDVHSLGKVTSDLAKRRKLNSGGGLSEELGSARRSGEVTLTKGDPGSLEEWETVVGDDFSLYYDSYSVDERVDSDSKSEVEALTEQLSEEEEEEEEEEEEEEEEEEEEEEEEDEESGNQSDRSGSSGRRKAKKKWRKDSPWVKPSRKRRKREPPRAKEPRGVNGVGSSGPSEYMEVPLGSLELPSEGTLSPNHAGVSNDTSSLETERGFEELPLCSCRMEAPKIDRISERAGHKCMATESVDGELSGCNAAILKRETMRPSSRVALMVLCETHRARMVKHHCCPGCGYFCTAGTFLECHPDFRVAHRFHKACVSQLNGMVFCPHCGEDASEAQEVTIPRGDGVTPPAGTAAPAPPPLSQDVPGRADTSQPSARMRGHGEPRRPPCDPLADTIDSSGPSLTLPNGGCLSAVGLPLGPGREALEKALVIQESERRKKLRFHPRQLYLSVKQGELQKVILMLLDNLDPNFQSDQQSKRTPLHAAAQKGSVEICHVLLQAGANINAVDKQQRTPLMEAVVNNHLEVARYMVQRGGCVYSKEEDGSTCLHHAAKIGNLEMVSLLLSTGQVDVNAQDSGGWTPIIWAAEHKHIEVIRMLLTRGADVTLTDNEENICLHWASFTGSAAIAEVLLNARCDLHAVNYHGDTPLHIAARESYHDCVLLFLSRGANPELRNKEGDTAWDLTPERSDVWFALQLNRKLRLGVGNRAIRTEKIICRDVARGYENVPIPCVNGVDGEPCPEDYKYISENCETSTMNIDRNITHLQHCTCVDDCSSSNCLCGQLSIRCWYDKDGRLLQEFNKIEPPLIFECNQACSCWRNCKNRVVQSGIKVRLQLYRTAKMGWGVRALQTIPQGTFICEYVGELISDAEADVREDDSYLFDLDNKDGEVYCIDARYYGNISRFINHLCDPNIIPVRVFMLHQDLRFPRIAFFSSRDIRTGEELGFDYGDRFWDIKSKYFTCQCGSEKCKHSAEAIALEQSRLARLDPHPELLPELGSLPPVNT
T1 sequence (Q9H9B1 2-1298 limits assumed): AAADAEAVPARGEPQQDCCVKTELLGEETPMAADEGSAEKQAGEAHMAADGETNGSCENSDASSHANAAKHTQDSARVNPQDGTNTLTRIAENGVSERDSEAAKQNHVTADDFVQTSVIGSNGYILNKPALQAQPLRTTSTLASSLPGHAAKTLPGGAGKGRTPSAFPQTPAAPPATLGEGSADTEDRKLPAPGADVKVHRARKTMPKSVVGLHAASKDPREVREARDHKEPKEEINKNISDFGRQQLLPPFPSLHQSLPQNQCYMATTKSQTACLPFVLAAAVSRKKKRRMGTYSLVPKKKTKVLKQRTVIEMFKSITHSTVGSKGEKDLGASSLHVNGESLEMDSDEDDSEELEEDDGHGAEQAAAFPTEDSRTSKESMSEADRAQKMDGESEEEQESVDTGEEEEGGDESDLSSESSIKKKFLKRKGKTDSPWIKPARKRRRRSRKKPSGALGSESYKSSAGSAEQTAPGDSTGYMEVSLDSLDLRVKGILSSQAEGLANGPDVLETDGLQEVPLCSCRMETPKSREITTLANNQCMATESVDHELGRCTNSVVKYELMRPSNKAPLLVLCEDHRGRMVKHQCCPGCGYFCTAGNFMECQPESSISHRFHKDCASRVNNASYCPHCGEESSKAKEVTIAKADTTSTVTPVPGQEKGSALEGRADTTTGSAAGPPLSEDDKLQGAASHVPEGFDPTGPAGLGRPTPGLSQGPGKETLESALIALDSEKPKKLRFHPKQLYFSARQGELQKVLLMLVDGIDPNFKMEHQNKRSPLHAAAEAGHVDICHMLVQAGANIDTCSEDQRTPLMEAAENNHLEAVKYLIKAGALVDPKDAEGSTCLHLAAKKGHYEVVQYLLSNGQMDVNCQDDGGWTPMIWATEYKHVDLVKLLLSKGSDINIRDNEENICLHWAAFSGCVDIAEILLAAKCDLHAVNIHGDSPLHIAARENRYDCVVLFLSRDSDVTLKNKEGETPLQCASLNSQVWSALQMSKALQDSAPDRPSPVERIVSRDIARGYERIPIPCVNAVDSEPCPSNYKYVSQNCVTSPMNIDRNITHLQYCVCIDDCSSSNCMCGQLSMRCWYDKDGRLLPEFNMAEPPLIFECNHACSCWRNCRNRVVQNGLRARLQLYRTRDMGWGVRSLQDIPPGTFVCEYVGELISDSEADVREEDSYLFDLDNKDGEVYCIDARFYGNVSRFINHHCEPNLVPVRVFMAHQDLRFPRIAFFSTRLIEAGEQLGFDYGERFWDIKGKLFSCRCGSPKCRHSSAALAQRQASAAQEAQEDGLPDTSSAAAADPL

[1] = SILAC ratio 3xMBT vs 3xMBTD355N pull-down, 293T cells, all values in log base 2
[2] = SILAC ratio DMSO relative to UNC0638, pull-down with 3xMBT, all values in log base 2
[3] = SILAC ratio, pull-down 3xMBT vs 3xMBTD355N
[4] = SILAC ratio DMSO/UNC0638 of protein pulled down with 3xMBT

| Molecule | 3xMBT/D355N UNC Heavy (3×MBT domain of L3MBTL1; [1]) [log base 2] | 3xMBT/D355N UNC Light (3×MBT domain of L3MBTL1; [1]) [log base 2] | Relative to UNC0638 UNC Heavy (G9a and GLP; [2]) [log base 2] | Relative to UNC0638 UNC Light (G9a and GLP; [2]) [log base 2] | Relative to UNC0638 Average (G9a and GLP; all values in log base 2) [log base 2] | 3xMBT/D355N UNC Heavy (3×MBT domain of L3MBTL1; [3]) [log base 2] | 3xMBT/D355N UNC Light (3×MBT domain of L3MBTL1; [3]) [log base 2] | Relative to UNC0638 UNC Heavy (G9a and GLP; [4]) [log base 2] | Relative to UNC0638 UNC Light (G9a and GLP; [4]) [log base 2] | Relative to UNC0638 Average (G9a and GLP) [log base 2] |
| --- | --- | --- | --- | --- | --- | --- | --- | --- | --- | --- |
| SEC23A (protein, UniProt Q15436 2-765, looked up) Protein transport protein …: TTYLEFIQQNEERDGVRFSWNVWPSSRLEATRMVVPVAALFTPLKERPDLPPIQYEPVLCSRTTCRAVLNPLCQVDYRAKLWACNFCYQRNQFPPSYAGISELNQPAELLPQFSSIEYVVLRGPQMPLIFLYVVDTCMEDEDLQALKESMQMSLSLLPPTALVGLITFGRMVQVHELGCEGISKSYVFRGTKDLSAKQLQEMLGLSKVPLTQATRGPQVQQPPPSNRFLQPVQKIDMNLTDLLGELQRDPWPVPQGKRPLRSSGVALSIAVGLLECTFPNTGARIMMFIGGPATQGPGMVVGDELKTPIRSWHDIDKDNAKYVKKGTKHFEALANRAATTGHVIDIYACALDQTGLLEMKCCPNLTGGYMVMGDSFNTSLFKQTFQRVFTKDMHGQFKMGFGGTLEIKTSREIKISGAIGPCVSLNSKGPCVSENEIGTGGTCQWKICGLSPTTTLAIYFEVVNQHNAPIPQGGRGAIQFVTQYQHSSGQRRIRVTTIARNWADAQTQIQNIAASFDQEAAAILMARLAIYRAETEEGPDVLRWLDRQLIRLCQKFGEYHKDDPSSFRFSETFSLYPQFMFHLRRSSFLQVFNNSPDESSYYRHHFMRQDLTQSLIMIQPILYAYSFSGPPEPVLLDSSSILADRILLMDTFFQILIYHGETIAQWRKSGYQDMPEYENFRHLLQAPVDDAQEILHSRFPMPRYIDTEHGGSQARFLLSKVNPSQTHNNMYAWGQESGAPILTDDVSLQVFMDHLKKLAVSSAA | 2.56 | 3.17 | 0.22 | −0.01 | 0.11 | – | – | – | – | – |
| PABPN1 (protein, UniProt Q86U42 2-306, looked up) Polyadenylate-binding protein …: AAAAAAAAAAGAAGGRGSGPGRRRHLVPGAGGEAGEGAPGGAGDYGNGLESEELEPEELLLEPEPEPEPEEEPPRPRAPPGAPGPGPGSGAPGSQEEEEEPGLVEGDPGDGAIEDPELEAIKARVREMEEEAEKLKELQNEVEKQMNMSPPPGNAGPVIMSIEEKMEADARSIYVGNVDYGATAEELEAHFHGCGSVNRVTILCDKFSGHPKGFAYIEFSDKESVRTSLALDESLFRGRQIKVIPKRTNRPGISTTDRGFPRARYRARTTNYNSSRSRFYSGFNSRPRGRVYRGRARATSWYSPY | – | – | – | – | – | 3.77 | 4.04 | 0.21 | 0.04 | 0.13 |
| TRMT61A (protein, UniProt Q96FX7 2-289, looked up) tRNA …: SFVAYEELIKEGDTAILSLGHGAMVAVRVQRGAQTQTRHGVLRHSVDLIGRPFGSKVTCGRGGWVYVLHPTPELWTLNLPHRTQILYSTDIALITMMLELRPGSVVCESGTGSGSVSHAIIRTIAPTGHLHTVEFHQQRAEKAREEFQEHRVGRWVTVRTQDVCRSGFGVSHVADAVFLDIPSPWEAVGHAWDALKVEGGRFCSFSPCIEQVQRTCQALAARGFSELSTLEVLPQVYNVRTVSLPPPDLGTGTDGPAGSDTSPFRSGTPMKEAVGHTGYLTFATKTPG | – | – | – | – | – | 2.78 | 3.82 | −0.07 | 0.29 | 0.11 |
| UBAP2 (protein, UniProt Q5T6F2 1-1119, looked up) Ubiquitin-associated protein 2: MMTSVSSDHCRGAREKPQISAAQSTQPQKQVVQATAEQMRLAQVIFDKNDSDFEAKVKQLMEVTGKNQDECIVALHDCNGDVNKAINILLEGNSDTTSWETVGCKKKNFAKENSENKENREKKSEKESSRGRGNNNRKGRGGNRGREFRGEENGIDCNQVDKPSDRGKRARGRGFGRGRGRGAGRFSTQGMGTFNPADYSDSTSTDVCGTKLVVWEAAQNGADEGTELASNTHNIAQDLSNKSSYGLKGAWKNSVEEWTTEDWTEDLSETKVFTASSAPAENHILPGQSIDLVALLQKPVPHSQASEANSFETSQQQGFGQALVFTNSQHNNQMAPGTGSSTAVNSCSPQSLSSVLGSGFGELAPPKMANITSSQILDQLKAPSLGQFTTTPSTQQNSTSHPTTTTSWDLKPPTSQSSVLSHLDFKSQPEPSPVLSQLSQRQQHQSQAVTVPPPGLESFPSQAKLRESTPGDSPSTVNKLLQLPSTTIENISVSVHQPQPKHIKLAKRRIPPASKIPASAVEMPGSADVTGLNVQFGALEFGSEPSLSEFGSAPSSENSNQIPISLYSKSLSEPLNTSLSMTSAVQNSTYTTSVITSCSLTSSSLNSASPVAMSSSYDQSSVHNRIPYQSPVSSSESAPGTIMNGHGGGRSQQTLDTPKTTGPPSALPSVSSLPSTTSCTALLPSTSQHTGDLTSSPLSQLSSSLSSHQSSLSAHAALSSSTSHTHASVESASSHQSSATFSTAATSVSSSASSGASLSSSMNTANSLCLGGTPASASSSSSRAAPLVTSGKAPPNLPQGVPPLLHNQYLVGPGGLLPAYPIYGYDELQMLQSRLPVDYYGIPFAAPTALASRDGSLANNPYPGDVTKFGRGDSASPAPATTPAQPQQSQSQTHHTAQQPFVNPALPPGYSYTGLPYYTGMPSAFQYGPTMFVPPASAKQHGVNLSTPTPPFQQASGYGQHGYSTGYDDLTQGTAAGDYSKGGYAGSSQAPNKSAGSGPGKGVSVSSSTTGLPDMTGSVYNKTQTFDKQGFHAGTPPPFSLPSVLGSTGPLASGAAPGYAPPPFLHILPAHQQPHSQLLHHHLPQDAQSGSGQRSQPSSLQPKSQASKPAYGNSPYWTN | – | – | – | – | – | 2.90 | 1.92 | 0.20 | 0.04 | 0.12 |

Source: patent publication US20140274782A1, “AFFINITY REAGENTS AND METHODS FOR DETECTION, PURIFICATION, AND PROTEOMIC ANALYSIS OF METHYLATED PROTEINS” (The Board of Trustees of the Leland Stanford Junior …, priority 2013, published 2014)
